Reference: US9708383 (Novo Nordisk, dated 2017)
*1 amine or outer side, *2 acyl side, *3 side chain or, on linkers, in order; H or OH if unused. Where no end group is shown, it is not given here. Side-chain parts run from the residue outwards. [ ]: non-standard residue; d: D form. The star is where a group is joined. 8‑(4-carboxyphenoxy)octanoyl = O=C(O)c1ccc(OCCCCCCCC(=O)*)cc1; Decanoyl(10-(4-HOOC-PhO)) = O=C(O)c1ccc(OCCCCCCCCCC(=O)*)cc1; γGlu = O=C(O)[C@H](CCC(=O)[*:2])N[*:1]; C12 diacid = O=C(O)CCCCCCCCCCC(=O)*; 13‑carboxytridecanoyl = C14 diacid; AEEA = NCCOCCOCC(=O)O; Aib = CC(C)(N)C(=O)O

B1: GLP-1 derivative of Example 37: [Aib8,Lys18,Glu22,Val25,Arg26,Lys31]-GLP-1-(7-33)-peptide amide (peptide)
peptide: H[Aib]EGTFTSDVSK([AEEA-AEEA-γGlu-13‑carboxytridecanoyl])YLEEQAVREFIAK([AEEA-AEEA-γGlu-13‑carboxytridecanoyl])LV-NH2
notes: Second site printed without its number (N^ε-)

target: T1, human GLP-1 receptor (human, UniProt P43220 24-463); assay: SPA, 2.0% vs 0.005% HSA
T1 construct: whole, on cells; Used as purified membranes of the transfected hamster cells, not whole cells; also called hGLP-1

Binder	ratio IC50 high HSA/IC50 low HSA
H[Aib]EGTFTSDVSK([AEEA-AEEA-γGlu-13‑carboxytridecanoyl])YLEEQAAK([AEEA-AEEA-γGlu-13‑carboxytridecanoyl])EFIAWLVQGRG [GLP-1 derivative of Example 80: [Aib8,Lys18,Glu22,Gln34]-GLP-1-(7-37)-peptide]	> 1
H[Aib]EGTFTSDVSK([AEEA-AEEA-13‑carboxytridecanoyl])YLEEQAAK([AEEA-AEEA-13‑carboxytridecanoyl])EFIAWLVQGRG [GLP-1 derivative of Example 84: [Aib8,Lys18,Glu22,Gln34]-GLP-1-(7-37)-peptide]	> 1
H[Aib]EGTFTSDVSK([AEEA-AEEA-γGlu-2‑phenylcyclopropanecarbonyl])YLEEQAAK([AEEA-AEEA-γGlu-2‑phenylcyclopropanecarbonyl])EFIAWLVQGRG [GLP-1 derivative of Example 79: [Aib8,Lys18,Glu22,Gln34]-GLP-1-(7-37)-peptide]	> 1
H[Aib]EGTFTSDVSK([AEEA-AEEA-γGlu-C12 diacid])YLEEQAAK([AEEA-AEEA-γGlu-C12 diacid])EFIAWLVQGRG [GLP-1 derivative of Example 39: [Aib8,Lys18,Glu22,Gln34]-GLP-1-(7-37)-peptide]	> 1
H[Aib]EGTFTSDVSK([AEEA-AEEA-γGlu-8‑(4-carboxyphenoxy)octanoyl])YLEEQAAK([AEEA-AEEA-γGlu-8‑(4-carboxyphenoxy)octanoyl])EFIAWLVQGRG [GLP-1 derivative of Example 87: [Aib8,Lys18,Glu22,Gln34]-GLP-1-(7-37)-peptide]	> 1
B1	> 1
H[Aib]EGTFTSDVSK([AEEA-γGlu-AEEA-Decanoyl(10-(4-HOOC-PhO))])YLEEQAAK([AEEA-γGlu-AEEA-Decanoyl(10-(4-HOOC-PhO))])EFIAWLVQGRG [GLP-1 derivative of Example 90: [Aib8,Lys18,Glu22,Gln34]-GLP-1-(7-37)-peptide]	> 1
H[Aib]EGTFTSDVSK([AEEA-AEEA-AEEA-AEEA-Decanoyl(10-(4-HOOC-PhO))])YLEEQAAK([AEEA-AEEA-AEEA-AEEA-Decanoyl(10-(4-HOOC-PhO))])EFIAWLVQGRG [GLP-1 derivative of Example 71: [Aib8,Lys18,Glu22,Gln34]-GLP-1-(7-37)-peptide]	> 1
H[Aib]EGTFTSDVSK([γGlu-AEEA-AEEA-13‑carboxytridecanoyl])YLEEQAAK([γGlu-AEEA-AEEA-13‑carboxytridecanoyl])EFIAWLVQGRG [GLP-1 derivative of Example 65: [Aib8,Lys18,Glu22,Gln34]-GLP-1-(7-37)-peptide]	> 1
H[Aib]EGTFTSDVSK([AEEA-AEEA-γGlu-13‑carboxytridecanoyl])YLEEQAVRLFIAWLVK([AEEA-AEEA-γGlu-13‑carboxytridecanoyl]) [GLP-1 derivative of Example 63: [Aib8,Lys18,Glu22,Val25,Arg26,Leu27]-GLP-1-(7-34)-peptide]	> 1
H[Aib]EGTFTSDVSK([γGlu-AEEA-AEEA-Decanoyl(10-(4-HOOC-PhO))])YLEEQAAK([γGlu-AEEA-AEEA-Decanoyl(10-(4-HOOC-PhO))])EFIAWLVQGRG [GLP-1 derivative of Example 82: [Aib8,Lys18,Glu22,Gln34]-GLP-1-(7-37)-peptide]	> 1
H[Aib]EGTFTSDVSK([γGlu-AEEA-AEEA-13‑carboxytridecanoyl])YLEEQAVREFIAK([γGlu-AEEA-AEEA-13‑carboxytridecanoyl])LVG [GLP-1 derivative of Example 36: [Aib8,Lys18,Glu22,Val25,Arg26,Lys31,Gly34]-GLP-1-(7-34)-peptide]	> 1
H[Aib]EGTFTSDVSK([AEEA-AEEA-Decanoyl(10-(4-HOOC-PhO))])YLEEQAAK([AEEA-AEEA-Decanoyl(10-(4-HOOC-PhO))])EFIAWLVQGRG [GLP-1 derivative of Example 85: [Aib8,Lys18,Glu22,Lys26,Gln34]-GLP-1-(7-37)-peptide]	> 1
H[Aib]EGTFTSDVSK([AEEA-γGlu-AEEA-13‑carboxytridecanoyl])YLEEQAAK([AEEA-γGlu-AEEA-13‑carboxytridecanoyl])EFIAWLVQGRG [GLP-1 derivative of Example 86: [Aib8,Lys18,Glu22,Gln34]-GLP-1-(7-37)-peptide]	> 1
H[Aib]EGTFTSDVSK([AEEA-AEEA-AEEA-AEEA-γGlu-Decanoyl(10-(4-HOOC-PhO))])YLEEQAAK([AEEA-AEEA-AEEA-AEEA-γGlu-Decanoyl(10-(4-HOOC-PhO))])EFIAWLVQGRG [GLP-1 derivative of Example 69: [Aib8,Lys18,Glu22,Gln34]-GLP-1-(7-37)-peptide]	> 1

target: T1, human GLP-1 receptor; assay: SPA, displacement of 125I-GLP-1(7-36)NH2, 0.005% HSA

Binder	IC50 [nM]
H[Aib]EGTFTSDVSK([AEEA-AEEA-γGlu-13‑carboxytridecanoyl])YLEEQAAK([AEEA-AEEA-γGlu-13‑carboxytridecanoyl])EFIAWLVQGRG [GLP-1 derivative of Example 80: [Aib8,Lys18,Glu22,Gln34]-GLP-1-(7-37)-peptide]	< 1000
H[Aib]EGTFTSDVSK([AEEA-AEEA-13‑carboxytridecanoyl])YLEEQAAK([AEEA-AEEA-13‑carboxytridecanoyl])EFIAWLVQGRG [GLP-1 derivative of Example 84: [Aib8,Lys18,Glu22,Gln34]-GLP-1-(7-37)-peptide]	< 1000
H[Aib]EGTFTSDVSK([AEEA-AEEA-γGlu-2‑phenylcyclopropanecarbonyl])YLEEQAAK([AEEA-AEEA-γGlu-2‑phenylcyclopropanecarbonyl])EFIAWLVQGRG [GLP-1 derivative of Example 79: [Aib8,Lys18,Glu22,Gln34]-GLP-1-(7-37)-peptide]	< 1000
H[Aib]EGTFTSDVSK([AEEA-AEEA-γGlu-C12 diacid])YLEEQAAK([AEEA-AEEA-γGlu-C12 diacid])EFIAWLVQGRG [GLP-1 derivative of Example 39: [Aib8,Lys18,Glu22,Gln34]-GLP-1-(7-37)-peptide]	< 1000
H[Aib]EGTFTSDVSK([AEEA-AEEA-γGlu-8‑(4-carboxyphenoxy)octanoyl])YLEEQAAK([AEEA-AEEA-γGlu-8‑(4-carboxyphenoxy)octanoyl])EFIAWLVQGRG [GLP-1 derivative of Example 87: [Aib8,Lys18,Glu22,Gln34]-GLP-1-(7-37)-peptide]	< 1000
B1	< 1000
H[Aib]EGTFTSDVSK([AEEA-γGlu-AEEA-Decanoyl(10-(4-HOOC-PhO))])YLEEQAAK([AEEA-γGlu-AEEA-Decanoyl(10-(4-HOOC-PhO))])EFIAWLVQGRG [GLP-1 derivative of Example 90: [Aib8,Lys18,Glu22,Gln34]-GLP-1-(7-37)-peptide]	< 1000
H[Aib]EGTFTSDVSK([AEEA-AEEA-AEEA-AEEA-Decanoyl(10-(4-HOOC-PhO))])YLEEQAAK([AEEA-AEEA-AEEA-AEEA-Decanoyl(10-(4-HOOC-PhO))])EFIAWLVQGRG [GLP-1 derivative of Example 71: [Aib8,Lys18,Glu22,Gln34]-GLP-1-(7-37)-peptide]	< 1000
H[Aib]EGTFTSDVSK([γGlu-AEEA-AEEA-13‑carboxytridecanoyl])YLEEQAAK([γGlu-AEEA-AEEA-13‑carboxytridecanoyl])EFIAWLVQGRG [GLP-1 derivative of Example 65: [Aib8,Lys18,Glu22,Gln34]-GLP-1-(7-37)-peptide]	< 1000
H[Aib]EGTFTSDVSK([AEEA-AEEA-γGlu-13‑carboxytridecanoyl])YLEEQAVRLFIAWLVK([AEEA-AEEA-γGlu-13‑carboxytridecanoyl]) [GLP-1 derivative of Example 63: [Aib8,Lys18,Glu22,Val25,Arg26,Leu27]-GLP-1-(7-34)-peptide]	< 1000
H[Aib]EGTFTSDVSK([γGlu-AEEA-AEEA-Decanoyl(10-(4-HOOC-PhO))])YLEEQAAK([γGlu-AEEA-AEEA-Decanoyl(10-(4-HOOC-PhO))])EFIAWLVQGRG [GLP-1 derivative of Example 82: [Aib8,Lys18,Glu22,Gln34]-GLP-1-(7-37)-peptide]	< 1000
H[Aib]EGTFTSDVSK([γGlu-AEEA-AEEA-13‑carboxytridecanoyl])YLEEQAVREFIAK([γGlu-AEEA-AEEA-13‑carboxytridecanoyl])LVG [GLP-1 derivative of Example 36: [Aib8,Lys18,Glu22,Val25,Arg26,Lys31,Gly34]-GLP-1-(7-34)-peptide]	< 1000
H[Aib]EGTFTSDVSK([AEEA-AEEA-Decanoyl(10-(4-HOOC-PhO))])YLEEQAAK([AEEA-AEEA-Decanoyl(10-(4-HOOC-PhO))])EFIAWLVQGRG [GLP-1 derivative of Example 85: [Aib8,Lys18,Glu22,Lys26,Gln34]-GLP-1-(7-37)-peptide]	< 1000
H[Aib]EGTFTSDVSK([AEEA-γGlu-AEEA-13‑carboxytridecanoyl])YLEEQAAK([AEEA-γGlu-AEEA-13‑carboxytridecanoyl])EFIAWLVQGRG [GLP-1 derivative of Example 86: [Aib8,Lys18,Glu22,Gln34]-GLP-1-(7-37)-peptide]	< 1000
H[Aib]EGTFTSDVSK([AEEA-AEEA-AEEA-AEEA-γGlu-Decanoyl(10-(4-HOOC-PhO))])YLEEQAAK([AEEA-AEEA-AEEA-AEEA-γGlu-Decanoyl(10-(4-HOOC-PhO))])EFIAWLVQGRG [GLP-1 derivative of Example 69: [Aib8,Lys18,Glu22,Gln34]-GLP-1-(7-37)-peptide]	< 1000
